Key:
[1] = target: T1, HLA-A*0201 loaded with the Carcinoembryonic antigen (CEA)-derived … peptide (biotin on the C-terminal biotinylation tag); assay: Biacore SPR, biotinylated pMHC immobilised on streptavidin
T1 construct: Soluble, biotinylated, immobilised on a streptavidin chip

[2] = target: T1, HLA-A*0201 loaded with the …; assay: Biacore SPR
Summary of the method: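 pMHC complexes were immobilised in SPR flow cells through biotin-tag binding. Soluble ILT-like molecule was passed over the surfaces at constant flow rate and response recorded in RU for affinity and kinetic analysis.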

Binder	Kd [1] [nM]	koff [1] [s⁻¹]	Kd [2] [nM]	koff [2] [s⁻¹]
soluble truncated variant of the Wild-Type ILT-2 molecule (domains D1 and D2) (receptor, the entry carries the N-terminal Met used for bacterial expression; also called soluble wild-type ILT-2; soluble variant of wild-type ILT-2) MGHLPKPTLWAEPGSVITQGSPVTLRCQGGQETQEYRLYREKKTAPWITRIPQELVKKGQFPIPSITWEHAGRYRCYYGSDTAGRSESSDPLELVVTGAYIKPTLSAQPSPVVNSGGNVTLQCDSQVAFDGFILCKEGEDEHPQCLNSQPHARGSSRAIFSVGPVSPSRRWWYRCYAYDSNSPYEWSLPSDLLELLVL	~6000	2.4	–	–
SEQ ID NO 107 (receptor, mutated soluble two domain ILT-2) MGHLPKPTLWAEPGSVITMDQPVTLRCQGGQETQEYRLYREKKTAPWITRIPQELVKKGQFPIPSITWEHAGRYRCIGRSQTSQWSASSDPLELVVTGIYLAPTLSAQPSPVVNSGGNVTLQCDSQVAFDGFILCKEGEDEHPQCLNSQPHARGSSRAIFSVGPVSPSRRWWYRCYAYDSNSPYEWSLPSDLLELLVL	–	–	≤ 1000	≤ 2
SEQ ID NO 108 (receptor, mutated soluble two domain ILT-2) MGHLPKPTLWAEPGSVITLGQPVTLRCQGGQETQEYRLYREKKTAPWITRIPQELVKKGQFPIPSITWEHAGRYRCIGRSQTSQWSASSDPLELVVTGIYLAPTLSAQPSPVVNSGGNVTLQCDSQVAFDGFILCKEGEDEHPQCLNSQPHARGSSRAIFSVGPVSPSRRWWYRCYAYDSNSPYEWSLPSDLLELLVL	–	–	≤ 1000	≤ 2
SEQ ID NO 109 (receptor, mutated soluble two domain ILT-2) MHLPKPTLWAEPGSVITMDQPVTLRCQGGQETQEYRLYREKKTAPWITRIPQELVKKGQFPIPSITWEHAGRYRCYYGSDTSQWSASSDPLELVVTGVYIKPTLSAQPSPVVNSGGNVTLQCDSQVAFDGFILCKEGEDEHPQCLNSQPHARGSSRAIFSVGPVSPSRRWWYRCYAYDSNSPYEWSLPSDLLELDVDG	–	–	≤ 1000	≤ 2

Reference: US20100135997A1 (MEDGENE, published 2010)
